Test results reported in the supplement of paper PMC7877785.
± gives the uncertainty stated by the source.

Assay: self-splicing fitness, log relative to wild type (ln ratio); higher = more splicing; Tetrahymena group I intron in knt gene, E. coli kanamycin selection, DiMSum; sequences stand for … in CUCUCU…GGAGGGAAAAGUUAUCAGGCAUGCACCUGGUAGCUAGUCUUUAAACCAAUAGAUUGCAUCGGUUUAAAAGGCAAGACCGUCAAAUUGCGGGAAAGGGGUCAACAGCCGUUCAGUACCAAGUCUCAGGGGAAACUUUGAGAUGGCCUUGCAAAGGGUAUGGUAAUAAGCUGACGGACAUGGUCCUAACCACGCAGCCAAGUCCUAAGUCAACAGAUCUUCUGUUGAUAUGGAUGCAGUUCACAGACUAAAUGUCGGUCGGGGAAGAUGUAUUCUUCUCAUAAGAUAUAGUCGGACCUCUCCUUAAUGGGAGCUAGCGGAUGAAGUGAUGCAACACUGGAGCCGCUGGGAACUAAUUUGUAUGCGAAAGUAUAUUGAUUAGUUUUGGAGUACUCGUGGUCG
Summary of the method: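 Colonies from six replicate transformations of E. coli BL21(DE3) were pooled and amplicon-sequenced on an Illumina HiSeq 2500. The library placed an intron with all eight P1ex-region nucleotides randomised inside the knt kanamycin-resistance gene on pET-22b(+), and cells grew overnight at 37°C or 30°C on LB agar with or without 25 μg/mL kanamycin (plus 100 μg/mL carbenicillin, 50 μM IPTG, 0.2% rhamnose). Fitness is the DiMSum error-weighted combination of wild-type-normalised replicate fold changes, kanamycin versus none.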

| Sequence | self-splicing fitness (ln) (30 °C) | self-splicing fitness (ln) (37 °C) |
| --- | --- | --- |
| UUUAAGCAAUAUUACGGGGU | -3.7 ± 0.22 | -1.7 ± 0.19 |
| UUUAAGCAAUAUUACGGGUA | -2.25 ± 0.13 | -0.422 ± 0.11 |
| UUUAAGCAAUAUUACGGGUC | -3.19 ± 0.35 | -2.25 ± 0.35 |
| UUUAAGCAAUAUUACGUGAA | -0.503 ± 0.093 | -0.616 ± 0.095 |
| UUUAAGCAAUAUUACGUGGU | -2.88 ± 0.16 | -2.62 ± 0.21 |
| UUUAAGCAAUAUUACGUGUG | -1.24 ± 0.096 | -0.602 ± 0.093 |
| UUUCAGCAAUAUUACGAAAA | -1.02 ± 0.15 | -0.793 ± 0.15 |
| UUUCAGCAAUAUUACGAACG | -0.381 ± 0.11 | 0.41 ± 0.14 |
| UUUCAGCAAUAUUACGAAUC | -1.94 ± 0.18 | -1.31 ± 0.24 |
| UUUCAGCAAUAUUACGACGA | -0.00347 ± 0.1 | 0.236 ± 0.12 |
| UUUCAGCAAUAUUACGCACG | -1.05 ± 0.12 | -0.0521 ± 0.13 |
| UUUCAGCAAUAUUACGCCCA | -1.19 ± 0.22 | -0.699 ± 0.22 |
| UUUCAGCAAUAUUACGCCCG | -0.734 ± 0.22 | 0.939 ± 0.3 |
| UUUCAGCAAUAUUACGCCUU | -1.58 ± 0.2 | -0.883 ± 0.2 |
| UUUCAGCAAUAUUACGCGGA | -2.2 ± 0.14 | -1.54 ± 0.15 |
| UUUCAGCAAUAUUACGCUCU | -1.2 ± 0.093 | -0.182 ± 0.11 |
| UUUCAGCAAUAUUACGGCUG | -4.1 ± 0.46 | -1.84 ± 0.27 |
| UUUCAGCAAUAUUACGGGCC | -4.27 ± 0.46 | -2.37 ± 0.37 |
| UUUCAGCAAUAUUACGGGCG | -1.02 ± 0.098 | 0.331 ± 0.14 |
| UUUCAGCAAUAUUACGGGUU | -3.19 ± 0.24 | -2.13 ± 0.18 |

| Sequence | self-splicing fitness (ln) (30 °C) | self-splicing fitness (ln) (37 °C) |
| --- | --- | --- |
| UUUCAGCAAUAUUACGGUAA | -0.255 ± 0.1 | -0.168 ± 0.084 |
| UUUCAGCAAUAUUACGUAAA | -0.728 ± 0.089 | -0.608 ± 0.11 |
| UUUCAGCAAUAUUACGUACC | -3.51 ± 0.25 | -2.14 ± 0.17 |
| UUUCAGCAAUAUUACGUAGA | -1.72 ± 0.076 | -0.283 ± 0.092 |
| UUUCAGCAAUAUUACGUAUC | -1.71 ± 0.14 | -1.5 ± 0.14 |
| UUUCAGCAAUAUUACGUAUU | -2.08 ± 0.13 | -1.39 ± 0.13 |
| UUUCAGCAAUAUUACGUCGC | -3.67 ± 0.2 | -2.73 ± 0.24 |
| UUUCAGCAAUAUUACGUCGG | -1.51 ± 0.1 | -1.17 ± 0.14 |
| UUUCAGCAAUAUUACGUCUA | -0.33 ± 0.077 | 0.101 ± 0.079 |
| UUUCAGCAAUAUUACGUGAG | -0.129 ± 0.054 | -0.623 ± 0.07 |
| UUUCAGCAAUAUUACGUGCU | -3.47 ± 0.32 | -2 ± 0.24 |
| UUUGAGCAAUAUUACGAACG | – | -0.865 ± 0.26 |
| UUUGAGCAAUAUUACGACAU | -3.673 ± 0.034 | -2.43 ± 0.043 |
| UUUGAGCAAUAUUACGAGUA | – | -1.86 ± 0.21 |
| UUUGAGCAAUAUUACGCUUA | -3.38 ± 0.36 | -2.07 ± 0.23 |
| UUUGAGCAAUAUUACGGAAA | -2.01 ± 0.21 | -1.95 ± 0.24 |
| UUUGAGCAAUAUUACGGCGA | -1.09 ± 0.18 | -0.162 ± 0.19 |
| UUUGAGCAAUAUUACGGCUC | -2.38 ± 0.42 | -1.39 ± 0.46 |
| UUUGAGCAAUAUUACGGGAA | -2.02 ± 0.39 | -2.22 ± 0.32 |
| UUUGAGCAAUAUUACGGGAU | -2.91 ± 0.2 | -3.24 ± 0.32 |

| Sequence | self-splicing fitness (ln) (30 °C) | self-splicing fitness (ln) (37 °C) |
| --- | --- | --- |
| UUUGAGCAAUAUUACGUACG | -1.49 ± 0.32 | -0.599 ± 0.35 |
| UUUGAGCAAUAUUACGUCAG | -3.43 ± 0.2 | -1.46 ± 0.27 |
| UUUGAGCAAUAUUACGUCGU | -3.91 ± 0.34 | -3.09 ± 0.24 |
| UUUGAGCAAUAUUACGUGAU | -2.95 ± 0.33 | – |
| UUUUAGCAAUAUUACGACGA | -0.357 ± 0.14 | 0.422 ± 0.19 |
| UUUUAGCAAUAUUACGACGU | -2.06 ± 0.25 | -1.24 ± 0.22 |
| UUUUAGCAAUAUUACGAGCA | -1.72 ± 0.15 | -0.97 ± 0.16 |
| UUUUAGCAAUAUUACGAUUG | -1.52 ± 0.14 | -0.255 ± 0.16 |
| UUUUAGCAAUAUUACGAUUU | -1.67 ± 0.16 | -0.611 ± 0.21 |
| UUUUAGCAAUAUUACGCAUC | -3.19 ± 0.31 | -2.15 ± 0.23 |
| UUUUAGCAAUAUUACGGAAG | -1.3 ± 0.17 | -0.731 ± 0.19 |
| UUUUAGCAAUAUUACGGCCA | -1.57 ± 0.19 | -0.0772 ± 0.19 |
| UUUUAGCAAUAUUACGGCGC | -1.12 ± 0.29 | -0.567 ± 0.34 |
| UUUUAGCAAUAUUACGGGGU | -1.6 ± 0.22 | -1.08 ± 0.35 |
| UUUUAGCAAUAUUACGGUCG | -0.778 ± 0.2 | -0.345 ± 0.18 |
| UUUUAGCAAUAUUACGGUGG | -1.24 ± 0.084 | -1.16 ± 0.13 |
| UUUUAGCAAUAUUACGUACA | -2.16 ± 0.15 | -0.143 ± 0.2 |
| UUUUAGCAAUAUUACGUAGA | -2.06 ± 0.22 | -0.71 ± 0.24 |
| UUUUAGCAAUAUUACGUCCC | – | -1.78 ± 0.48 |
| UUUUAGCAAUAUUACGUUGC | -2.8 ± 0.43 | – |
